Changes are numbered by the printed parent chain.
B1: antibody 34 (antibody, V domains shown)
VH: QVTLKESGPGILQPSQTLSLTCSFSGFSLSTFSLGVGWIRQSSGKGLEWLAHIWWDDEKYYNPALKSRLTISKDTSKNQVFLKIANVDAADTATYYCARAYYSKSYYALDYWGQGTSVTVSS
VL: DIQMTQSPSSLSASLGERVSLTCRASQEISGYLSWLQQKPDGTIKRLIYAASTLDSGVPKRFSGSRSGSDYSLAISSLESEDFADYYCLQYANFPFTFGSGTKLEIK
notes: mouse IgG, kappa light chain; also called clone #34; purified antibody 34
B2: antibody 16 (antibody, V domains shown)
VH: QVTLKESGPGILQPSQTLSLTCSFSGFSLSTFALGVGWIRQPSGRGLEWLAHIWWDDDKYYNPALKSRLTISKDTSKNHVFLKIANVDTADTATYYCARITTYYYGMDYWGQGTSVTVSS
VL: DIVLSQSPATLSVTPGDSVSLFCRASQSIGNHLHWYQQESHASPRLLIKYASQSISGIPSRFSGSGSGTDFTLSINSVETEDFGMYFCQQSYNWPLTFGAGTKLELK
notes: mouse IgG, kappa light chain; also called clone #16; purified antibody 16
B3: antibody 48 (antibody, V domains shown)
VH: QVQLQQSGTELVRPGTSVKVSCKASGYAFTNYLIEWVKQRPGQGLEWIGVINPGSGFTKYNEKFKGKATLTADKSSSTVYMHLSSLTSEDSAVYFCARGLYRAMDYWGQGTSVTVSS
VL: DIQMTQSPASQSASLGESVTITCLASQTIATWLAWYQQKPGKSPQLLIYGATTLADGVPSRFSGGGSGTKFSFKISSLQAEDFVSYYCQQLYSTPYTFGGGTKLEIK
notes: mouse IgG, kappa light chain; also called clone #48; purified antibody 48
B4: antibody 47 (antibody, V domains shown)
VH: B3 VH with T9A, K59N, T69I, T71N, V79A, H82Q, S84I, G99D, Y101K, Y106H
VL: B3 VL with A30G, Y49H, G50A, T53S, G65S, L91I, T94S
notes: mouse IgG, kappa light chain; also called clone #47
B5: antibody 50 (antibody, V domains shown)
VH: B3 VH with T9A, T16A, T30S, V79A, H82Q
VL: B3 VL with A30G, G50A, T52A, T53S, S85N, L91I
notes: mouse IgG, kappa light chain; also called clone #50; purified antibody 50
B6: antibody 46 (antibody, V domains shown)
VH: QVTLKESGPGILQPSQTLSLTCSFSGFSLSTFGMGVGWIRQPSGKGLEWLAHIWWDDDNYYNQALKSRLTISKDNTKNQVFLNIANVDTADTATYYCARIRSYDYDVRYAMDYWGQGTSVTVSS
VL: DIKMTQSPSSMYASLRERVTITCKASQDINSYLSWFQQKPGKSPKTLIYRANRLVDGVPSRFSGSGSGQDYSLTISSLEYEDLGIYYCQQYYEFPLTFGAGTRLELK
notes: mouse IgG, kappa light chain; also called clone #46
B7: antibody 51 (antibody, V domains shown)
VH: QVQLQQSGAELVKPGASVKISCKASGYTFSNYWMNWVKQRPGKGLEWIGQIYPGDGDTKYNGKFKNKATLTADKSSSTAYMQFSSLTSEDSAVYFCARGDLVFVYWGLGTLVTVSA
VL: DVQITQSPSYLAVSPGETITINCRASKNIRKYLAWYQEKPGKTNKLLIYSGSTSQSGVPSRFSGSGSGTDFTLTISSLEPEDFAMYYCQQHNEYPYTFGGGTKLEIK
notes: mouse IgG, kappa light chain; also called clone #51
B8: antibody 5 (antibody, V domains shown)
VH: QVTLKESGPGILQPSQTLSLTCSFSGFSLSTFGMGVGWIRQPSGKGLEWLAHIWWDDEKYYNSALKSRLTISKATSKNQAFLKIANVDTADTATYYCARISNYGSNYWYFNVWGTGTTVTVSS
VL: QVVLTQSPALMSASPGEKVTMTCSAGSSVSCMYWYQQKPGSSPRVLIYDTSNLASGVPARFTGSGSGTSYSLTISRMEAEDAASYYCQQWNSYPLTFGAGTKLELK
notes: mouse IgG, kappa light chain; also called clone #5; purified antibody 5
B9: antibody 44 (antibody, V domains shown)
VH: B8 VH with G44E, E58D, S63P, A74D, A80I, A85T, D91E, A98S, S101G, N111D
VL: QIVLTQSPAVMSASPGEKVTMTCTASSSVYYMYWYQQTPGSSPRLLIYDTSNLASGVPVRFSGSGSGTSYSLTISRMEAEDAATYYCQQWNTYPLTFGAGTKLELK
notes: mouse IgG, kappa light chain; also called clone #44; purified antibody 44
B10: antibody 57 (antibody, V domains shown)
VH: B8 VH with E58D, S63P, A74D, A80I, T92S, Y95F, S101E, N111D
VL: B9 VL with V10I, T24S, Y30S, T38K, L45V, I74V, T92S
notes: mouse IgG, kappa light chain; also called clone #57
B11: antibody 43 (antibody, V domains shown)
VH: B8 VH with T3A, P42S, H52N, E58D, S63P, A74D, T75A, S101G, N111D
VL: QIVLTQSPAIMSASPGERVTMTCSANSRISYMYWYQQKPGSSPRLLIYDTSNLASGVPVRFSGSGSGTSYSLTISRMEAEDAATYNCQQWSSYPLTFGAGTKLELK
notes: mouse IgG, kappa light chain; also called clone #43; purified antibody 43
B12: antibody 54 (antibody, V domains shown)
VH: QVTLKESGPGILQPSQTLSLTCSFSGFSLSTFGLGVGWIRQPSGKGLECLAHIWWDDDKYSNPALKSRLTISKDTSKNQVFLKIANVDSADTATYFCARILNYGSNYWYFDVWGTGTTVTVSS
VL: B11 VL with I10L, R18K, N26S, R28S, Y70F, I74V, N86Y, S91N
notes: mouse IgG, kappa light chain; also called clone #54
B13: antibody 42 (antibody, V domains shown)
VH: B8 VH with F24L, M34R, S63P, A74D, A80V, K83R, S101Q, N111D
VL: B11 VL with Q1L, R18K, S24G, N26T, Y33F, L45V, M77V, A82V, N86Y, S91N
notes: mouse IgG, kappa light chain; also called clone #42; purified antibody 42
B14: antibody 56 (antibody, V domains shown)
VH: B8 VH with A51T, H52N, E58D, A64V, A74D, A80V, S101A, N102A, N111D
VL: B11 VL with R18K, N26S, R28S, I29V, L45V, A54S, N86Y
notes: mouse IgG, kappa light chain; also called clone #56
B15: antibody 49 (antibody, V domains shown)
VH: QVTLKESGPGILQPSQTLSLTCSFSGFSLSTFGMGVGWIRQPSGKGLEWLAHIWWDDDKYYNPALQSRLTVSKDTAKNQVFLKIANVDTADTAIYYCARVGNYGSNYWYFAVWGTGTTVTVSS
VL: B9 VL with V10I, T24S, Y30S, T38K, T92S
notes: mouse IgG, kappa light chain; also called clone #49
B16: antibody 22 (antibody, V domains shown)
VH: B8 VH with A80V
VL: B8 VL with C31Y, S84T
notes: mouse IgG, kappa light chain; also called clone #22; purified antibody 22

These binders were tested against T1, miR2-FL-WT-FLAG (mouse, UniProt Q80WQ6 1-827) (assay: FACS, MEF-DKO-miR2-FL-WT-FLAG cells).
T1 construct: on MEF-DKO cells
T1 sequence: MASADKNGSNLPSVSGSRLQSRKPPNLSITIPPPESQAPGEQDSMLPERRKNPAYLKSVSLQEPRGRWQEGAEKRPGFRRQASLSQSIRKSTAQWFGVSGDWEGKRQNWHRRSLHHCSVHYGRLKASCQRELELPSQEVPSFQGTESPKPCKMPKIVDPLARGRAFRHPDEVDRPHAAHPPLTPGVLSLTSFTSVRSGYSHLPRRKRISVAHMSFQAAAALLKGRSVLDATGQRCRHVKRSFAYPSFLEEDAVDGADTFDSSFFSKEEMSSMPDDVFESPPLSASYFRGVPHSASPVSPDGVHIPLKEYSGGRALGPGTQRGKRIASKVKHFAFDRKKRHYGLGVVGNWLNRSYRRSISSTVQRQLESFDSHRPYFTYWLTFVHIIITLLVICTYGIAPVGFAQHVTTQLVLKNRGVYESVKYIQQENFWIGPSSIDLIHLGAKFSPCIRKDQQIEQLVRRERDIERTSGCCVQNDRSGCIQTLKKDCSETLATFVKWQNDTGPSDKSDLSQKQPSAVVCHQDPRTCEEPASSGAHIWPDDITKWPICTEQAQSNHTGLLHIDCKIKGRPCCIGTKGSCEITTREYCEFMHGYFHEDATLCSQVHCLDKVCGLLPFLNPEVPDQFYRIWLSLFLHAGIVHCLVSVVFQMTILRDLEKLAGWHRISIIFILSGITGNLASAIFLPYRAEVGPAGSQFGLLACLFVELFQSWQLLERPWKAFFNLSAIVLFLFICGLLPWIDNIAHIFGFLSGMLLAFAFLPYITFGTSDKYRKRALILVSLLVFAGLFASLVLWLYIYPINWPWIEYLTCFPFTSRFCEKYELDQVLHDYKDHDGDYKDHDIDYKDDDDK
Protocol: In brief, immortalized MEF-DKO-EV control cells, MEF-DKO-hiR2-FL-WT-FLAG cells and MEF-DKO-miR2-FL-WT-FLAG cells were harvested with 10 mM EDTA in PBS, washed and resuspended in FACS buffer (PBS, 3% FBS, 0.05% sodium azide), and seeded in Nunc U-bottom 96-well plates (Thermo Fisher Scientific, USA) at approximately 3×10⁵ cells per well. To pellet cells and remove supernatants, the plates were centrifuged at 1,500 rpm and 4° C. for 3 minutes. For primary staining, cells were resuspended in 100 μl per well of either FACS buffer alone (controls), mouse monoclonal anti-FLAG IgG (Sigma-Aldrich, USA) at 3 μg/ml FACS buffer or the antibodies of the invention also at 3 μg/ml FACS buffer and incubated on ice for 1 hour. Afterwards, plates were centrifuged at 1,500 rpm and 4° C. for 3 minutes and washed twice with 200 μl per well of FACS buffer. For secondary staining, cells were spun down and resuspended in 100 μl per well of PE-conjugated goat anti-mouse IgG F(ab′)2 detection fragment (Dianova, Germany) diluted 1:100 in FACS buffer. Protected from light, the cell suspensions were incubated on ice for 1 hour. Plates were then centrifuged at 1,500 rpm and 4° C. for 3 minutes and washed three times with 200 μl per well of FACS buffer. Finally, cells were resuspended in 150 μl per well of FACS buffer and analyzed using a BD Accuri™ C6 Plus flow cytometer (Becton Dickinson, Germany).
B1: no binding (tested: 3 µg/ml). B2: no binding (tested: 3 µg/ml). B3: no binding (tested: 3 µg/ml). B4: no binding (tested: 3 µg/ml). B5: no binding (tested: 3 µg/ml). B6: no binding (tested: 3 µg/ml). B7: no binding (tested: 3 µg/ml). B8: no binding (tested: 3 µg/ml). B9: no binding (tested: 3 µg/ml). B10: no binding (tested: 3 µg/ml). B11: no binding (tested: 3 µg/ml). B12: no binding (tested: 3 µg/ml). B13: no binding (tested: 3 µg/ml). B14: no binding (tested: 3 µg/ml). B15: no binding (tested: 3 µg/ml). B16: no binding (tested: 3 µg/ml).
